Some results are limits rather than exact numbers.

This note sets out measurements from US20250320281A1.

What all share (experiment): cell-based or functional assay
Assay [1] deals with HIV-1 Env of isolate MGRM-Chronic-B-004, clade B, on pseudovirus (HIV-1).
Assay [2] deals with HIV-1 93UG077 envelope glycoprotein (Env) on pseudovirus (HIV-1).
For assay [3], the target named is HIV-1 Env of isolate 97ZA012 (clade C) (HIV-1 isolate 97ZA012).
The target of assay [4] is HIV-1 Env of pseudovirus MGRM-G-017 (HIV-1, clade G isolate MGRM-G-017).
The target of assay [5] is HIV-1 Env of pseudovirus MGRM-G-019 (HIV-1, clade G isolate MGRM-G-019).
In assay [6] the target is HIV-1 92BR020 envelope glycoprotein (Env) on pseudovirus (HIV-1).
The target of assay [7] is HIV-1 Env of pseudovirus MGRM-AG-005 (clade CRF_AG) (HIV-1).
Assay [8] has as its target HIV-1 envelope glycoprotein (Env) of isolate MGRM-A-012, clade A (HIV-1).
Assay [9] concerns the target HIV-1 envelope glycoprotein (Env) of isolate MGRM-A-002, clade A (HIV-1).
Assay [10] addresses HIV-1 Env of pseudovirus MGRM-Chronic-B-020 (HIV-1).
Assay [11] addresses HIV-1 envelope glycoprotein (Env) of isolate MGRM-A-013, clade A (HIV-1).
Assay [12] concerns the target HIV-1 envelope glycoprotein (Env) of isolate MGRM-A-009, clade A (HIV-1).
Assay [13] has as its target HIV-1 JRCSF envelope glycoprotein (Env) on pseudovirus (HIV-1) (UniProt P20871).
Assay [14] deals with HIV-1 94UG114 envelope glycoprotein (Env) on pseudovirus (HIV-1 (isolate 94UG114, clade D)).
Assay [15] concerns the target HIV-1 Env of pseudovirus MGRM-G-004 (clade G) (HIV-1).
Assay [16] deals with HIV-1 Env of pseudovirus MGRM-Chronic-B-024 (HIV-1).

Consider 4E10 (antibody), for which the IC50 (µg/ml), pseudovirus neutralization came to 3.7 µg/mL in assay [1]; 4.7 µg/mL in assay [3]; 1.14 µg/mL in [4]; 6.53 µg/mL in assay [5]; 4.27 µg/mL in [8]; 6.45 µg/mL in assay [9]. In addition, the IC50 (µg/ml), pseudovirus neutralization was determined as 2.45 µg/mL in assay [10]; 1.46 µg/mL in assay [11]; 12 µg/mL in [12]; 9.72 µg/mL in assay [14]; 9.19 µg/mL in [16]. Moreover, the IC50, pseudovirus neutralization in assay [2] came out at 11.2 µg/mL; in [6] it was 41.4 µg/mL; in assay [13] it was 6 µg/mL. The IC50 in assay [7] was found to be 2.13 µg/mL; in [15] it was 1.47 µg/mL. This substance also came in with an IC90 (pseudovirus neutralization) in [13] of 44.1 µg/mL.
For b12 (antibody), the IC50 (µg/ml), pseudovirus neutralization was 0.26 µg/mL in assay [1]; over 50 µg/mL in assay [3]; over 50 µg/mL in [4]; 3.77 µg/mL in [5]; over 50 µg/mL in assay [8]; over 50 µg/mL in assay [9]. The IC50 (µg/ml), pseudovirus neutralization is 6.16 µg/mL in assay [10]; 7.04 µg/mL in [11]; 4.34 µg/mL in [12]; over 50 µg/mL in assay [14]; over 50 µg/mL in assay [16]. The values for the IC50, pseudovirus neutralization in assay [2], in [6] and in assay [13] were 41.1 µg/mL, 27.5 µg/mL and 0.16 µg/mL, respectively. Also, the half-maximal inhibitory concentration (IC50) in assay [7] and in [15] was over 50 µg/mL each time. This substance came in with an IC90 (pseudovirus neutralization) in assay [13] of 1.17 µg/mL.
For 2F5 (antibody), the IC50 (µg/ml), pseudovirus neutralization in assay [1] was 2.41 µg/mL; in assay [3] it was over 50 µg/mL; in assay [4], 0.6 µg/mL; in assay [5] it was over 50 µg/mL; in assay [8] it was 2.36 µg/mL; in assay [9], over 50 µg/mL. For the same substance, the IC50 (µg/ml), pseudovirus neutralization in assay [10] is 0.78 µg/mL; in [11], 0.66 µg/mL; in assay [12] it was 9.4 µg/mL; in assay [14], over 50 µg/mL; in assay [16] it was over 50 µg/mL. The IC50, pseudovirus neutralization in assay [2] is 4.45 µg/mL; in assay [6] it was over 50 µg/mL; in assay [13], 3.36 µg/mL. The IC50 in assay [7] and in assay [15] was over 50 µg/mL throughout. Besides, the IC90 (pseudovirus neutralization) in assay [13] was found to be 25.3 µg/mL.
As to 1495_C14 (PGC14) (antibody), the IC50 (µg/ml), pseudovirus neutralization in assay [1], in assay [3], in assay [4], in [5], in [8] and in assay [9] was over 50 µg/mL throughout. Further, the IC50 (µg/ml), pseudovirus neutralization in assay [10], in [11], in assay [12], in assay [14] and in assay [16] was over 50 µg/mL each time. In addition, the IC50, pseudovirus neutralization in assay [2] is over 50 µg/mL; in [6] it was 0.637 µg/mL; in [13] it was over 50 µg/mL. For the same substance, the IC50 in assay [7] and in assay [15] was over 50 µg/mL each time.

The IC50 is the midpoint of a concentration-inhibition curve. Read a high IC50 as weaker potency.
